Experimental data from patent US20240254246A1 (PROMETHEUS BIOSCIENCES, published 2024).

T1: human CD30L expressed on cells (human, UniProt P32971 1-234)
T1 construct: also called huCD30L; B16-huCD30L
T1 sequence: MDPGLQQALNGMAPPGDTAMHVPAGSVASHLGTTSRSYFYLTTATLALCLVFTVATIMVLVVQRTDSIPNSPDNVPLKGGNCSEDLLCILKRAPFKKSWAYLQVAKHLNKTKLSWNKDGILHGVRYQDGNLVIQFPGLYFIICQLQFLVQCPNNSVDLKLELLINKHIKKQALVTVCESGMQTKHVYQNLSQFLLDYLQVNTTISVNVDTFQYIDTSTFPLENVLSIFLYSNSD

T2: CDH13 (human, UniProt P55290 139-693)
T2 construct: whole, on cells; also called hit #16
T2 sequence (looked up): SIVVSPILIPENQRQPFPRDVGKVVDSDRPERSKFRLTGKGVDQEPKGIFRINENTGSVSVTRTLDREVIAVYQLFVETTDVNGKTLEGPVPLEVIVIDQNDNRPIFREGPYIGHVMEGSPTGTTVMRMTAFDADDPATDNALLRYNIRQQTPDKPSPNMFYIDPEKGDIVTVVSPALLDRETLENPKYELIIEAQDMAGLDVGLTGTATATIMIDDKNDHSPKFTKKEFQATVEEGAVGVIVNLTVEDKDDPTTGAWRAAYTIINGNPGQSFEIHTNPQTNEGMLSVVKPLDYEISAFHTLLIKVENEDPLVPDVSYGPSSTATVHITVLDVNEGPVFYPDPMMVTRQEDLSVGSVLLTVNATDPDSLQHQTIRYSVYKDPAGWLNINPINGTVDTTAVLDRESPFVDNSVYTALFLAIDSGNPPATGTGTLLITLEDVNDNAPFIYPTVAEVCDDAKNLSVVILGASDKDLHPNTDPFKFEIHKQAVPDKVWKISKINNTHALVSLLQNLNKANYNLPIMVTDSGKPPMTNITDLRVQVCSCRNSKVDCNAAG

T3: cynomolgus CD30L expressed on cells (cynomolgus, UniProt A0A7N9CVX7 1-234)
T3 construct: whole, on cells; also called cyCD30L; HEK293-cyCD30L
T3 sequence: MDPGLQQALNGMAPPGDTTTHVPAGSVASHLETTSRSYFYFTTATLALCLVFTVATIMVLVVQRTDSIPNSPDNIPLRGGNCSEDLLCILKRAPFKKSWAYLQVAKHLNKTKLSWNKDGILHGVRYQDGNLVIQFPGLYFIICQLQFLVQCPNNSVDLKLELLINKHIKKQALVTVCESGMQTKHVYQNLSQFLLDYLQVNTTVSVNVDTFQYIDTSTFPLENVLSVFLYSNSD

T4: recombinant human CD30L protein (human, UniProt P32971 63-234)
T4 construct: also called rhCD30L; huCD30L (ELISA)
T4 sequence (looked up): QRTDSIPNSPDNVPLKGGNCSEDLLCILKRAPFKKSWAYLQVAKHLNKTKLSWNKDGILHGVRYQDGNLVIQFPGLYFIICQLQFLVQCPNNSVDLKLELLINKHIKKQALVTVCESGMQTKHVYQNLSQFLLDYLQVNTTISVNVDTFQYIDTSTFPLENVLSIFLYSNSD


Key:
[1] = biological target: T1, human CD30L expressed on cells; test: flow cytometry, blocking of CD30-Fc binding to human CD30L on cells; reference Ref1
[2] = biological target: T2, CDH13; test: cell microarray, library and confirmation screens
[3] = biological target: T3, cynomolgus CD30L expressed on cells; test: flow cytometry, blocking of CD30-Fc binding to cyno CD30L on cells; reference Ref1
[4] = biological target: T4, recombinant human CD30L protein; test: KinExA, Fab, human CD30L; reference Fab of Ref1
Source text: For each experiment, CD30L antigen is titrated in a background of the Fab and allowed to reach equilibrium. The solutions are then briefly exposed to the solid phase and a portion of free Fab is captured. The captured Fab is then labeled with a fluorescent secondary molecule. The short contact time with the solid phase is less than the time needed for dissociation of the pre-formed complex in solution, thus competition between the solution and the solid phase titrated binding partner is kinetically excluded.
The signals generated from the captured Fab, which are directly proportional to the concentration of free Fab in the equilibrated samples, are used to determine the KD value. The KinExA Pro software performs a least squares analysis on the measured data to fit optimal solution for the KD and the activity of the Fab to a curve representative of a 1:1 reversible bi-molecular interaction.

fold better IC50 than reference 1 (ref1) anti-CD30L [1] | binding result [2] | fold better IC50 than reference 1 (ref1) anti-CD30L [3] | fold difference in KD against the reference 1 anti-CD30L [4] | Binder
2.74 fold | no binding (tested: 5 µg/mL) | 2.13 fold |  | anti-CD30L antibody clone 2 germlined with IgG1 constant region SEQ ID NO: 502 (antibody, also called germlined clone 2; copies: 2 + 2) heavy: not shown VL: DIQMTQSPSSLSASVGDRVTITCRASQGISNHLAWFQQKPGKAPKSLIYAASSLQSGVPSRFSGSGSGTDFTLTISSLQPEDFATYYCQQYVTYPLTFGGGTKVEIK
 |  |  | 4.2 fold | Fab of clone 2 germlined (Fab, V domains shown, Fab used in KinExA; also called Fab of a representative anti-CD30L, clone 2 germlined) VH: EVQLVESGGGLVQPGRSLRLSCAASGFNFDDYAMHWVRQAPGKGLEWVSGISWRSGNIGYADSVKGRFTISRDNAKNSLYLQMNSLRAEDTALYYCAKDKGIGFNWNYEGFDYWGQGTLVTVSS VL: DIQMTQSPSSLSASVGDRVTITCRASQGISNHLAWFQQKPGKAPKSLIYAASSLQSGVPSRFSGSGSGTDFTLTISSLQPEDFATYYCQQYVTYPLTFGGGTKVEIK
